Assay results from US20260193293A1, “PEPTIDES CAPABLE OF INHIBITING PROTEIN-PROTEIN INTERACTIONS AT GABAB1A SUBUNIT AND USES THEREOF” (UNIVERSITY OF COPENHAGEN, priority 2022, published 2026).
Blank lines part the entries; values can stand above or below the binder they belong to. Starred links: 1 amine or outer side, 2 acyl side, 3 side chain; linkers in the order of their positions; H or OH if unused. Non-standard residues stand in square brackets, D forms with d. Obtyr = O-benzyl-L-tyrosine, O=C([C@H](Cc1ccc(OCc2ccccc2)cc1)N[*:1])[*:2]; Oetyr = O-ethyl-L-tyrosine, CCOc1ccc(C[C@H](N[*:1])C(=O)[*:2])cc1; Phe(4-NH2) = Nc1ccc(C[C@H](N)C(=O)O)cc1; 2Nal = N[C@@H](Cc1ccc2ccccc2c1)C(=O)O; Sar = CNCC(=O)O

Assays:
[1] = target: Sushi domains (SD1/2) protein of the GABAB1a (GB1a) subunit, recombinant; test: FP competition
[2] = target: Sushi domains (SD1/2) protein of the GABAB1a (GB1a) subunit, recombinant; test: FP competition with AJAP-1probe
[3] = target: Sushi domains (SD1/2) protein of the GABAB1a (GB1a) subunit, recombinant; test: FP competition; remark: listed apart in the source
[4] = target: Sushi domains (SD1/2) protein of GABAB1a (GB1a); test: FP competition vs TAMRA AJAP-1probe
Sushi domains (SD1/2) protein of GABAB1a (GB1a), sequence (Q9Z0U4 29-158): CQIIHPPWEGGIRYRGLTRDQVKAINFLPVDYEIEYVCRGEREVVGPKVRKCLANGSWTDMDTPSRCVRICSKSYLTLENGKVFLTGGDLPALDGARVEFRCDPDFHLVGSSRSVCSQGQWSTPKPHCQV

Sushi domains (SD1/2) protein of the GABAB1a (GB1a) subunit, recombinant, sequence (Q9Z0U4 29-158): as above

Ki [1]: 95 nM
Binder: Ac-ETEFIAWYGADTD-NH2 [peptide 37 (Ac-…-NH2)]

Ki [1]: 1.5 nM
Binder: EDDDAIDWYDSDDD (N-terminal acetyl; C-terminal amide; 3-(2-naphthyl)-L-alanine (2Nala) at 5) [peptide 20 (Ac-EDDD(2Nala)…-NH2)]

Ki [1]: 4.6 nM
Binder: Ac-EDDYIDWYDSDDD-NH2 [peptide 18 (Ac-…-NH2)]

Ki [2]: 1300 nM
Binder: Ac-SADAEEDDSDVWWGG-NH2 [peptide 12 (…)]

Ki [1]: 4 nM
Binder: Ac-EDDDWIDWGPTSDDD-NH2 [peptide 17 (Ac-…-NH2)]

Ki [2]: 1350 nM
Binder: Ac-WAIVWGPTVSREDGG-NH2

Ki [1]: 354 nM
Binder: Ac-ETEFIAWGGADTD-NH2 [hybrid peptide Y (Ac-…-NH2)]

Ki [1]: 62 nM
fold higher affinity than APPWT [3]: 10 fold
Binder: Ac-EDDSDVWWGPTGDED-NH2 [hybrid peptide X (Ac-…-NH2)]

Ki [1]: 5.3 nM
B1: peptide 21 (Ac-EDDD(2Nala)…-NH2) (peptide)
peptide: Ac-EDDD[2Nal]IDWGPTSDDD-NH2
SMILES: CC[C@H](C)[C@H](NC(=O)[C@H](Cc1ccc2ccccc2c1)NC(=O)[C@H](CC(=O)O)NC(=O)[C@H](CC(=O)O)NC(=O)[C@H](CC(=O)O)NC(=O)[C@H](CCC(=O)O)NC(C)=O)C(=O)N[C@@H](CC(=O)O)C(=O)N[C@@H](Cc1c[nH]c2ccccc12)C(=O)NCC(=O)N1CCC[C@H]1C(=O)N[C@H](C(=O)N[C@@H](CO)C(=O)N[C@@H](CC(=O)O)C(=O)N[C@@H](CC(=O)O)C(=O)N[C@@H](CC(=O)O)C(N)=O)[C@@H](C)O

Ki [1]: 5.6 nM
Binder: Ac-EDDSWIDWGPTGDED-NH2 [peptide 29 (Ac-…-NH2)]

Ki [2]: 73 nM
Binder: Ac-TTETEFIAWGPTGDE-NH2

Ki [1]: 11 nM
Binder: Ac-EDDSWIDWYGADTD-NH2 [peptide 30 (Ac-…-NH2)]

Ki [1]: 5.3 nM
B2: peptide 32 (Ac-EDDD(Oetyr)…-NH2) (peptide)
peptide: Ac-EDDD[Oetyr]IDWYDSDDD-NH2
SMILES: CCOc1ccc(C[C@H](NC(=O)[C@H](CC(=O)O)NC(=O)[C@H](CC(=O)O)NC(=O)[C@H](CC(=O)O)NC(=O)[C@H](CCC(=O)O)NC(C)=O)C(=O)N[C@H](C(=O)N[C@@H](CC(=O)O)C(=O)N[C@@H](Cc2c[nH]c3ccccc23)C(=O)N[C@@H](Cc2ccc(O)cc2)C(=O)N[C@@H](CC(=O)O)C(=O)N[C@@H](CO)C(=O)N[C@@H](CC(=O)O)C(=O)N[C@@H](CC(=O)O)C(=O)N[C@@H](CC(=O)O)C(N)=O)[C@@H](C)CC)cc1

Ki [1]: 3.2 nM
Binder: Ac-EDDDWIDWYDSDDD-NH2 [peptide 16 (Ac-…-NH2)]

Ki [1]: 9.3 nM
B3: peptide 33 (Ac-EDDD(Obtyr)…-NH2) (peptide)
peptide: Ac-EDDD[Obtyr]IDWYDSDDD-NH2
SMILES: CC[C@H](C)[C@H](NC(=O)[C@H](Cc1ccc(OCc2ccccc2)cc1)NC(=O)[C@H](CC(=O)O)NC(=O)[C@H](CC(=O)O)NC(=O)[C@H](CC(=O)O)NC(=O)[C@H](CCC(=O)O)NC(C)=O)C(=O)N[C@@H](CC(=O)O)C(=O)N[C@@H](Cc1c[nH]c2ccccc12)C(=O)N[C@@H](Cc1ccc(O)cc1)C(=O)N[C@@H](CC(=O)O)C(=O)N[C@@H](CO)C(=O)N[C@@H](CC(=O)O)C(=O)N[C@@H](CC(=O)O)C(=O)N[C@@H](CC(=O)O)C(N)=O

Ki [1]: 9.5 nM
B4: peptide 35 (Ac-EDDD(Obtyr)…-NH2) (peptide)
peptide: Ac-EDDD[Obtyr]IDWGPTSDDD-NH2
SMILES: CC[C@H](C)[C@H](NC(=O)[C@H](Cc1ccc(OCc2ccccc2)cc1)NC(=O)[C@H](CC(=O)O)NC(=O)[C@H](CC(=O)O)NC(=O)[C@H](CC(=O)O)NC(=O)[C@H](CCC(=O)O)NC(C)=O)C(=O)N[C@@H](CC(=O)O)C(=O)N[C@@H](Cc1c[nH]c2ccccc12)C(=O)NCC(=O)N1CCC[C@H]1C(=O)N[C@H](C(=O)N[C@@H](CO)C(=O)N[C@@H](CC(=O)O)C(=O)N[C@@H](CC(=O)O)C(=O)N[C@@H](CC(=O)O)C(N)=O)[C@@H](C)O

Ki [1]: 3.8 nM
Binder: Ac-EDDYIDWGPTSDDD-NH2 [peptide 19 (Ac-…-NH2)]

Ki [1]: 16 nM
fold better affinity than 9 [3]: 3.8 fold
Binder: Ac-EDDSWIWWGPTGDED-NH2 [peptide 27 (Ac-…-NH2)]

Ki [3]: 525 nM
Ki [4]: 525 nM
B5: PWAIVWG(N-Me-G)TVSRED (peptide)
peptide: Ac-PWAIVWG[Sar]TVSRED-NH2
SMILES: CC[C@H](C)[C@H](NC(=O)[C@H](C)NC(=O)[C@H](Cc1c[nH]c2ccccc12)NC(=O)[C@@H]1CCCN1C(C)=O)C(=O)N[C@H](C(=O)N[C@@H](Cc1c[nH]c2ccccc12)C(=O)NCC(=O)N(C)CC(=O)N[C@H](C(=O)N[C@H](C(=O)N[C@@H](CO)C(=O)N[C@@H](CCCNC(=N)N)C(=O)N[C@@H](CCC(=O)O)C(=O)N[C@@H](CC(=O)O)C(N)=O)C(C)C)[C@@H](C)O)C(C)C

Ki [2]: 581 nM
Binder: Ac-EDDSDVWWGGADTDY-NH2 [peptide 13 (…)]

Ki [3]: 100 nM
Ki [4]: 102 nM
B6: EDDSDVWW(Aphe)GADTD (peptide)
peptide: Ac-EDDSDVWW[Phe(4-NH2)]GADTD-NH2
SMILES: CC(=O)N[C@@H](CCC(=O)O)C(=O)N[C@@H](CC(=O)O)C(=O)N[C@@H](CC(=O)O)C(=O)N[C@@H](CO)C(=O)N[C@@H](CC(=O)O)C(=O)N[C@H](C(=O)N[C@@H](Cc1c[nH]c2ccccc12)C(=O)N[C@@H](Cc1c[nH]c2ccccc12)C(=O)N[C@@H](Cc1ccc(N)cc1)C(=O)NCC(=O)N[C@@H](C)C(=O)N[C@@H](CC(=O)O)C(=O)N[C@H](C(=O)N[C@@H](CC(=O)O)C(N)=O)[C@@H](C)O)C(C)C

Ki [1]: 31 nM
Ki [3]: 32 nM
Binder: Ac-ETEFIAWGPTGDED-NH2 [AJAP-1WT (Ac-…-NH2)]

Ki [2]: 1530 nM
Binder: Ac-ADAEEDDSDVWWGGA-NH2

Ki [2]: 465 nM
Binder: Ac-PWAIVWGPTVSREDG-NH2 [peptide 14 (…)]

Ki [1]: 6.5 nM
B7: peptide 34 (Ac-EDDD(Oetyr)…-NH2) (peptide)
peptide: Ac-EDDD[Oetyr]IDWGPTSDDD-NH2
SMILES: CCOc1ccc(C[C@H](NC(=O)[C@H](CC(=O)O)NC(=O)[C@H](CC(=O)O)NC(=O)[C@H](CC(=O)O)NC(=O)[C@H](CCC(=O)O)NC(C)=O)C(=O)N[C@H](C(=O)N[C@@H](CC(=O)O)C(=O)N[C@@H](Cc2c[nH]c3ccccc23)C(=O)NCC(=O)N2CCC[C@H]2C(=O)N[C@H](C(=O)N[C@@H](CO)C(=O)N[C@@H](CC(=O)O)C(=O)N[C@@H](CC(=O)O)C(=O)N[C@@H](CC(=O)O)C(N)=O)[C@@H](C)O)[C@@H](C)CC)cc1

Ki [1]: 18 nM
Binder: Ac-EDDSWIWWYGADTD-NH2 [peptide 28 (Ac-…-NH2)]
